Experimental data from patent US20180085456A1 (AFFIMED, published 2018).

Molecular target: T1, CD30 on CD30+ lymphoma cells (KARPAS-299) (UniProt P28908 19-595, limits assumed)
T1 sequence (looked up): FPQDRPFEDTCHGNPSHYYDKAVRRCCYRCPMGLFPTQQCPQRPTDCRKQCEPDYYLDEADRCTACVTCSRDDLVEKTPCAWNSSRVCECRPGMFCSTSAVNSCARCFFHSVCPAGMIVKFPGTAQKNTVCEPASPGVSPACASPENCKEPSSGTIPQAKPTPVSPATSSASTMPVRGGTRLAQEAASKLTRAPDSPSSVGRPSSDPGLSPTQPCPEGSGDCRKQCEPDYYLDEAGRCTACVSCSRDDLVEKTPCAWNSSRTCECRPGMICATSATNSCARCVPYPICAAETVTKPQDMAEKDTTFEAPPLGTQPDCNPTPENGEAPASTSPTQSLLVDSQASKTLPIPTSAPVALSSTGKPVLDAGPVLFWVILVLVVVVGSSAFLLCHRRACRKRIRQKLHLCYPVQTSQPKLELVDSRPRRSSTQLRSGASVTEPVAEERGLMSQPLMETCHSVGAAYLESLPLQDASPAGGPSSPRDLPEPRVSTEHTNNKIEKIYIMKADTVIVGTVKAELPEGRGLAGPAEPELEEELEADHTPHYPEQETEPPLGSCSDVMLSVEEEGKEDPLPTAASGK
Experiment: cell-based or functional assay

B1: bispecific CD30/CD16A tandem diabody (AFM13) (bispecific antibody)
chain: QVQLVQSGAEVKKPGESLKVSCKASGYTFTSYYMHWVRQAPGQGLEWMGIINPSGGSTSYAQKFQGRVTMTRDTSTSTVYMELSSLRSEDTAVYYCARGSAYYYDFADYWGQGTLVTVSSGGSGGSGGSDIVMTQSPKFMSTSVGDRVTVTCKASQNVGTNVAWFQQKPGQSPKVLIYSASYRYSGVPDRFTGSGSGTDFTLTISNVQSEDLAEYFCQQYHTYPLTFGGGTKLEINGGSGGSGGSQVQLQQSGAELARPGASVKMSCKASGYTFTTYTIHWVRQRPGHDLEWIGYINPSSGYSDYNQNFKGKTTLTADKSSNTAYMQLNSLTSEDSAVYYCARRADYGNYEYTWFAYWGQGTTVTVSSGGSGGSGGSSYVLTQPSSVSVAPGQTATISCGGHNIGSKNVHWYQQRPGQSPVLVIYQDNKRPSGIPERFSGSNSGNTATLTISGTQAMDEADYYCQVWDNYSVLFGGGTKLTVL
  potency and efficacy toward target and effector cells (EC50): 0.015 nM
